Measurements from patent US10495630B2, “Methods for the determination of compounds or compositions for the treatment of lipofuscin related diseases and compounds or compositions” (KATAIRO GMBH, priority 2014, dated 2019).

System: Abca4 (−/−) mice
Assay: A2E concentration in eyes of Abca4 (−/−) mice after intravitreal injection, HPLCMSMS
Type: in vivo
Conditions: redox active and chelating protein; intravitreal 2 μl of 20 mg/ml; one week after injection
Description: […] […] The left eye was not treated and maintained as a control. Untreated eyes of age-matched mice lacking the Abca4 transporter were an additional control.
The concentration in each treated eye was then expressed as a percentage of the average concentration in all untreated eyes in the mice of the same age.
The left eye was not treated and maintained as a control. Untreated eyes of age-matched mice lacking the Abca4 transporter were an additional control.
The left eye was not treated and maintained as a control. Untreated eyes of age-matched mice lacking the Abca4 transporter were an additional control. […] Tryptophan is capable of absorbing and re-radiating light energy, as is riboflavin.
Water solutions were diluted 1:3 with acetonitrile and then sealed in vials for injection. 6 μL of the water acetonitrile solutions were injected onto a 2×50 mm Phenyl derived HPLC column (3 μm) and eluted with a gradient from 20% acetonitrile to 100% acetonitrile over 4 minutes at a flow rate of 500 μL/minute.

B1: Lactoferrin: protein capable of binding iron with high affinity (protein, UniProt P02788 20-710, looked up)
Lactotransferrin: GRRRSVQWCAVSQPEATKCFQWQRNMRKVRGPPVSCIKRDSPIQCIQAIAENRADAVTLDGGFIYEAGLAPYKLRPVAAEVYGTERQPRTHYYAVAVVKKGGSFQLNELQGLKSCHTGLRRTAGWNVPIGTLRPFLNWTGPPEPIEAAVARFFSASCVPGADKGQFPNLCRLCAGTGENKCAFSSQEPYFSYSGAFKCLRDGAGDVAFIRESTVFEDLSDEAERDEYELLCPDNTRKPVDKFKDCHLARVPSHAVVARSVNGKEDAIWNLLRQAQEKFGKDKSPKFQLFGSPSGQKDLLFKDSAIGFSRVPPRIDSGLYLGSGYFTAIQNLRKSEEEVAARRARVVWCAVGEQELRKCNQWSGLSEGSVTCSSASTTEDCIALVLKGEADAMSLDGGYVYTAGKCGLVPVLAENYKSQQSSDPDPNCVDRPVEGYLAVAVVRRSDTSLTWNSVKGKKSCHTAVDRTAGWNIPMGLLFNQTGSCKFDEYFSQSCAPGSDPRSNLCALCIGDEQGENKCVPNSNERYYGYTGAFRCLAENAGDVAFVKDVTVLQNTDGNNNEAWAKDLKLADFALLCLDGKRKPVTEARSCHLAMAPNHAVVSRMDKVERLKQVLLHQQAKFGRNGSDCPDKFCLFQSETKNLLFNDNTECLARLHGKTTYEKYLGPQYVAGITNLKKCSTSPLLEACEFLRK
  % of A2E relative to age matched untreated: 63%
  Concentration A2E (μM) in the treated eye: 20 µM
